Test results as given in the array DNA melting data of Ke et al..

Assay: melting temperature; melt of duplexes
Details: sodium 0.0675 M; strand 1 µM

| Substance | Tm [°C] |
| --- | --- |
| CGACGTGCTCTATGTGCTG+CAGCACATATTGCACGTCG ((((((((..(((((((((+)))))))))..)))))))) | 50.9 |
| CGACGTGCTCTATGTGCTG+CAGCACATCATGCACGTCG ((((((((...((((((((+))))))))...)))))))) | 48.5 |
| CGACGTGCTCTATGTGCTG+CAGCACATCGCGCACGTCG ((((((((.(.((((((((+)))))))).).)))))))) | 48.3 |
| CGACGTGCTCTATGTGCTG+CAGCACATCTAGCACGTCG (((((((((..((((((((+))))))))..))))))))) | 50.6 |
| CGACGTGCTCTATGTGCTG+CAGCACATCTGGCACGTCG ((((((((...((((((((+))))))))...)))))))) | 49.5 |
| CGACGTGCTCTATGTGCTG+CAGCACATGAAGCACGTCG (((((((((..((((((((+))))))))..))))))))) | 53 |
| CGACGTGCTCTATGTGCTG+CAGCACATGACGCACGTCG ((((((((...((((((((+))))))))...)))))))) | 47 |
| CGACGTGCTCTATGTGCTG+CAGCACATGCCGCACGTCG ((((((((...((((((((+))))))))...)))))))) | 48.2 |
| CGACGTGCTCTATGTGCTG+CAGCACATGCGGCACGTCG ((((((((...((((((((+))))))))...)))))))) | 48.5 |
| CGACGTGCTCTATGTGCTG+CAGCACATGGAGCACGTCG ((((((((((.((((((((+)))))))).)))))))))) | 59.7 |
| CGACGTGCTCTATGTGCTG+CAGCACATGGCGCACGTCG ((((((((.(.((((((((+)))))))).).)))))))) | 51.6 |
| CGACGTGCTCTATGTGCTG+CAGCACATTAAGCACGTCG (((((((((..((((((((+))))))))..))))))))) | 51.1 |
| CGACGTGCTCTATGTGCTG+CAGCACATTACGCACGTCG ((((((((...((((((((+))))))))...)))))))) | 47.8 |
| CGACGTGCTCTATGTGCTG+CAGCACATTCCGCACGTCG ((((((((...((((((((+))))))))...)))))))) | 46.7 |
| CGACGTGCTCTATGTGCTG+CAGCACATTCGGCACGTCG ((((((((...((((((((+))))))))...)))))))) | 48.7 |
| CGACGTGCTCTATGTGCTG+CAGCACATTTGGCACGTCG ((((((((...((((((((+))))))))...)))))))) | 50.1 |
| CGACGTGCTCTATGTGCTG+CAGCACATTTTGCACGTCG ((((((((...((((((((+))))))))...)))))))) | 49 |
| CGACGTGCTGAATGTGCTG+CAGCACATAAAGCACGTCG (((((((((..((((((((+))))))))..))))))))) | 55.5 |
| CGACGTGCTGAATGTGCTG+CAGCACATACAGCACGTCG ((((((((((.((((((((+)))))))).)))))))))) | 58.6 |
| CGACGTGCTGAATGTGCTG+CAGCACATACCGCACGTCG ((((((((.(.((((((((+)))))))).).)))))))) | 51.3 |
| CGACGTGCTGAATGTGCTG+CAGCACATAGGGCACGTCG ((((((((...((((((((+))))))))...)))))))) | 50.7 |
| CGACGTGCTGAATGTGCTG+CAGCACATAGTGCACGTCG ((((((((...((((((((+))))))))...)))))))) | 45.3 |
| CGACGTGCTGAATGTGCTG+CAGCACATATCGCACGTCG ((((((((...((((((((+))))))))...)))))))) | 50.2 |
| CGACGTGCTGAATGTGCTG+CAGCACATCAGGCACGTCG ((((((((...((((((((+))))))))...)))))))) | 53.5 |

| Substance | Tm [°C] |
| --- | --- |
| CGACGTGCTGAATGTGCTG+CAGCACATCCAGCACGTCG ((((((((((.((((((((+)))))))).)))))))))) | 57.6 |
| CGACGTGCTGAATGTGCTG+CAGCACATCCCGCACGTCG ((((((((.(.((((((((+)))))))).).)))))))) | 51 |
| CGACGTGCTGAATGTGCTG+CAGCACATCGGGCACGTCG ((((((((...((((((((+))))))))...)))))))) | 50.9 |
| CGACGTGCTGAATGTGCTG+CAGCACATCGTGCACGTCG ((((((((...((((((((+))))))))...)))))))) | 46.3 |
| CGACGTGCTGAATGTGCTG+CAGCACATCTCGCACGTCG ((((((((...((((((((+))))))))...)))))))) | 50 |
| CGACGTGCTGAATGTGCTG+CAGCACATCTTGCACGTCG ((((((((...((((((((+))))))))...)))))))) | 50.5 |
| CGACGTGCTGAATGTGCTG+CAGCACATGAAGCACGTCG (((((((((..((((((((+))))))))..))))))))) | 59.3 |
| CGACGTGCTGAATGTGCTG+CAGCACATGCAGCACGTCG ((((((((((.((((((((+)))))))).)))))))))) | 59.7 |
| CGACGTGCTGAATGTGCTG+CAGCACATGCTGCACGTCG ((((((((.(.((((((((+)))))))).).)))))))) | 53.5 |
| CGACGTGCTGAATGTGCTG+CAGCACATGTAGCACGTCG (((((((((..((((((((+))))))))..))))))))) | 54.3 |
| CGACGTGCTGAATGTGCTG+CAGCACATTCAGCACGTCG (((((((((((((((((((+))))))))))))))))))) | 64.4 |
| CGACGTGCTGAATGTGCTG+CAGCACATTCTGCACGTCG ((((((((.((((((((((+)))))))))).)))))))) | 59.2 |
| CGACGTGCTGCATGTGCTG+CAGCACATAACGCACGTCG ((((((((...((((((((+))))))))...)))))))) | 49.4 |
| CGACGTGCTGCATGTGCTG+CAGCACATACCGCACGTCG ((((((((.(.((((((((+)))))))).).)))))))) | 50.7 |
| CGACGTGCTGCATGTGCTG+CAGCACATAGAGCACGTCG (((((((((..((((((((+))))))))..))))))))) | 52.3 |
| CGACGTGCTGCATGTGCTG+CAGCACATAGCGCACGTCG ((((((((...((((((((+))))))))...)))))))) | 54.2 |
| CGACGTGCTGCATGTGCTG+CAGCACATATCGCACGTCG ((((((((...((((((((+))))))))...)))))))) | 48.3 |
| CGACGTGCTGCATGTGCTG+CAGCACATATTGCACGTCG ((((((((...((((((((+))))))))...)))))))) | 49.3 |
| CGACGTGCTGCATGTGCTG+CAGCACATCATGCACGTCG ((((((((...((((((((+))))))))...)))))))) | 52.1 |
| CGACGTGCTGCATGTGCTG+CAGCACATCCAGCACGTCG ((((((((((.((((((((+)))))))).)))))))))) | 55.9 |
| CGACGTGCTGCATGTGCTG+CAGCACATCGAGCACGTCG (((((((((..((((((((+))))))))..))))))))) | 52.5 |
| CGACGTGCTGCATGTGCTG+CAGCACATCGCGCACGTCG ((((((((...((((((((+))))))))...)))))))) | 52.6 |
| CGACGTGCTGCATGTGCTG+CAGCACATCTTGCACGTCG ((((((((...((((((((+))))))))...)))))))) | 50.1 |
| CGACGTGCTGCATGTGCTG+CAGCACATGACGCACGTCG ((((((((..(((((((((+)))))))))..)))))))) | 52.9 |

| Substance | Tm [°C] |
| --- | --- |
| CGACGTGCTGCATGTGCTG+CAGCACATGCAGCACGTCG (((((((((((((((((((+))))))))))))))))))) | 67.5 |
| CGACGTGCTGCATGTGCTG+CAGCACATGCTGCACGTCG ((((((((.((((((((((+)))))))))).)))))))) | 61.2 |
| CGACGTGCTGCATGTGCTG+CAGCACATGGCGCACGTCG ((((((((..(((((((((+)))))))))..)))))))) | 55.3 |
| CGACGTGCTGCATGTGCTG+CAGCACATGGGGCACGTCG ((((((((..(((((((((+)))))))))..)))))))) | 57 |
| CGACGTGCTGCATGTGCTG+CAGCACATGGTGCACGTCG ((((((((..(((((((((+)))))))))..)))))))) | 54.2 |
| CGACGTGCTGCATGTGCTG+CAGCACATGTAGCACGTCG (((((((((.(((((((((+))))))))).))))))))) | 60.4 |
| CGACGTGCTGCATGTGCTG+CAGCACATGTTGCACGTCG ((((((((..(((((((((+)))))))))..)))))))) | 56.4 |
| CGACGTGCTGCATGTGCTG+CAGCACATTAGGCACGTCG ((((((((...((((((((+))))))))...)))))))) | 50.4 |
| CGACGTGCTGCATGTGCTG+CAGCACATTGTGCACGTCG ((((((((...((((((((+))))))))...)))))))) | 45.5 |
| CGACGTGCTGCATGTGCTG+CAGCACATTTGGCACGTCG ((((((((...((((((((+))))))))...)))))))) | 49.1 |
| CGACGTGCTGGATGTGCTG+CAGCACATAAAGCACGTCG (((((((((..((((((((+))))))))..))))))))) | 55.3 |
| CGACGTGCTGGATGTGCTG+CAGCACATACAGCACGTCG ((((((((((.((((((((+)))))))).)))))))))) | 61.4 |
| CGACGTGCTGGATGTGCTG+CAGCACATATAGCACGTCG (((((((((..((((((((+))))))))..))))))))) | 54.6 |
| CGACGTGCTGGATGTGCTG+CAGCACATATGGCACGTCG ((((((((...((((((((+))))))))...)))))))) | 52.7 |
| CGACGTGCTGGATGTGCTG+CAGCACATATTGCACGTCG ((((((((...((((((((+))))))))...)))))))) | 50.9 |
| CGACGTGCTGGATGTGCTG+CAGCACATCAAGCACGTCG (((((((((.(((((((((+))))))))).))))))))) | 59 |
| CGACGTGCTGGATGTGCTG+CAGCACATCAGGCACGTCG ((((((((..(((((((((+)))))))))..)))))))) | 56.7 |
| CGACGTGCTGGATGTGCTG+CAGCACATCCAGCACGTCG (((((((((((((((((((+))))))))))))))))))) | 65.5 |
| CGACGTGCTGGATGTGCTG+CAGCACATCTAGCACGTCG (((((((((.(((((((((+))))))))).))))))))) | 60 |
| CGACGTGCTGGATGTGCTG+CAGCACATCTCGCACGTCG ((((((((..(((((((((+)))))))))..)))))))) | 55.3 |
| CGACGTGCTGGATGTGCTG+CAGCACATCTGGCACGTCG ((((((((..(((((((((+)))))))))..)))))))) | 58.3 |
| CGACGTGCTGGATGTGCTG+CAGCACATCTTGCACGTCG ((((((((..(((((((((+)))))))))..)))))))) | 56.6 |
| CGACGTGCTGGATGTGCTG+CAGCACATGCAGCACGTCG ((((((((((.((((((((+)))))))).)))))))))) | 61.3 |
| CGACGTGCTGGATGTGCTG+CAGCACATGCCGCACGTCG ((((((((.(.((((((((+)))))))).).)))))))) | 53.6 |
